# From paper PMC6864843 (2019)
# B1: Soluble recombinant AAVR (analyte of the BIAcore assay) (domain or fragment)
# chain: SAGESVQITLPKNEVQLNAYVLQEPPKGETYTYDWQLITHPRDYSGEMEGKHSQILKLSKLTPGLYEFKVIVEGQNAHGEGYVNVTVKPEPRKNRPPIAIVSPQFQEISLPTTSTVIDGSQSTDDDKIVQYHWEELKGPLREEKISEDTAILKLSKLVPGNYTFSLTVVDSDGATNSTTANLTVNKAVDYPPVANAGPNQVITLPQNSITLFGNQSTDDHGITSYEWSLSPSSKGKVVEMQGVRTPTLQLSAMQEGDYTYQLTVTDTIGQQATAQVTVIVQPENNKPPQADAGPDKELTLPVDSTTLDGSKSSDDQKIISYLWEKTQGPDGVQLENANSSVATVTGLQVGTYVFTLTVKDERNLQSQSSVNVIVKEEINKPPIAKITGNVVITLPTSTAELDGSKSSDDKGIVSYLWTRDEGSPAAGEVLNHSDHHPILFLSNLVEGTYTFHLKVTDAKGESDTDRTTVEVKPD
# Legend:
# [1] = molecular target: Recombinant AAV1 particles (Adeno-Associated Virus serotype 1 capsid) (Adeno-associated virus 1) (UniProt Q9WBP8); assay: SPR; BIAcore T200; AAV1 particles immobilised on a CM5 chip by amide coupling (in sodium acetate pH 4.5); AAVR flowed at different concentrations, 30 μL/min, 25 °C, 100 mM NaCl in 10 mM HEPES pH 7.4
# [2] = molecular target: Recombinant AAV2 particles (Adeno-Associated Virus serotype 2 capsid) (Adeno-associated virus 2); assay: ELISA; sandwich 'VIRELISA': 10 μg AAVR-His coated per well, AAV2 sample (1.0 × 10^8 v.g. in Table 1) 1 h at RT, blocked with BSA, AAVR-SBP-His probe 1 h in PBST, HRP-streptavidin, ABTS, read at 450 nm; probe concentration, SAV-HRP dilution and ABTS time varied in Table 1
# Chain of Recombinant AAV2 particles (Adeno-Associated Virus serotype 2 capsid) (Adeno-associated virus 2) (O56652 whole entry, chain 1 of 3): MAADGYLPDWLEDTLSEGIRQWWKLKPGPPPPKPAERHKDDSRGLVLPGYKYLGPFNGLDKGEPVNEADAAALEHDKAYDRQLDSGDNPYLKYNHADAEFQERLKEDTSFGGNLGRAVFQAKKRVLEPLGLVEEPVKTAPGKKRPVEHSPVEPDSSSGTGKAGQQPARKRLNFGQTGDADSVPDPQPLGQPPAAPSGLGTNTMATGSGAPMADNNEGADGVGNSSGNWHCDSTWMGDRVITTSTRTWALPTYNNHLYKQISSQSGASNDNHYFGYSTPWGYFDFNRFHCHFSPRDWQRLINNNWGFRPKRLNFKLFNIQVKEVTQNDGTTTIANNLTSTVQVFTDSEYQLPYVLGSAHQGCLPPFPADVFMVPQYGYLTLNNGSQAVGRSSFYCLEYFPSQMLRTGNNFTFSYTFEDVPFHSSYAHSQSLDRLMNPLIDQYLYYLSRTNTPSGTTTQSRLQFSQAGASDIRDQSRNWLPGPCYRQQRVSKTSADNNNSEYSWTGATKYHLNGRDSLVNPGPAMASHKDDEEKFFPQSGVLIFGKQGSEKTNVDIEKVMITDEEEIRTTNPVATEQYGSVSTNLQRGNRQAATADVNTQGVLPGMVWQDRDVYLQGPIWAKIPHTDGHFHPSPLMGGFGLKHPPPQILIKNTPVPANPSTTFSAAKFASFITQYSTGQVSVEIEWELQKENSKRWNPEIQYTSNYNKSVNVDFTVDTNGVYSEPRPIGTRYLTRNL
# Chain of Recombinant AAV2 particles (Adeno-Associated Virus serotype 2 capsid) (Adeno-associated virus 2) (P03135 139-735, tags left off, chain 2 of 3, further chain): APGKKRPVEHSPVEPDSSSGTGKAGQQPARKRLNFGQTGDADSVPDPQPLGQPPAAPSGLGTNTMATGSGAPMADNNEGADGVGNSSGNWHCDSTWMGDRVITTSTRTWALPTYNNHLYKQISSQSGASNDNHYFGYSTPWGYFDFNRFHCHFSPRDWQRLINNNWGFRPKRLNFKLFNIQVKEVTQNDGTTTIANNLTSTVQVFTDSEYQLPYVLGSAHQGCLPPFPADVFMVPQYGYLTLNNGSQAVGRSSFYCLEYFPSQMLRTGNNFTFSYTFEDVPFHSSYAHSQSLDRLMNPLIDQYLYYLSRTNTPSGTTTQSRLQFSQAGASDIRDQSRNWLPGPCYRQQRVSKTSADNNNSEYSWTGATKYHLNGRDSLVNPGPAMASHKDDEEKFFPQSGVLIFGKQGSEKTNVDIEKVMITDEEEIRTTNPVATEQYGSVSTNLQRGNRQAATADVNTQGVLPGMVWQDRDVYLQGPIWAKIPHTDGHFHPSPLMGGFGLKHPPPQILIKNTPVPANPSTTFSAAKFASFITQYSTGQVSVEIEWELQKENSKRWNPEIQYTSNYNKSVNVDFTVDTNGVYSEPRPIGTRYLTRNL
# Chain of Recombinant AAV2 particles (Adeno-Associated Virus serotype 2 capsid) (Adeno-associated virus 2) (P03135 203-735 limits assumed, chain 3 of 3, further chain): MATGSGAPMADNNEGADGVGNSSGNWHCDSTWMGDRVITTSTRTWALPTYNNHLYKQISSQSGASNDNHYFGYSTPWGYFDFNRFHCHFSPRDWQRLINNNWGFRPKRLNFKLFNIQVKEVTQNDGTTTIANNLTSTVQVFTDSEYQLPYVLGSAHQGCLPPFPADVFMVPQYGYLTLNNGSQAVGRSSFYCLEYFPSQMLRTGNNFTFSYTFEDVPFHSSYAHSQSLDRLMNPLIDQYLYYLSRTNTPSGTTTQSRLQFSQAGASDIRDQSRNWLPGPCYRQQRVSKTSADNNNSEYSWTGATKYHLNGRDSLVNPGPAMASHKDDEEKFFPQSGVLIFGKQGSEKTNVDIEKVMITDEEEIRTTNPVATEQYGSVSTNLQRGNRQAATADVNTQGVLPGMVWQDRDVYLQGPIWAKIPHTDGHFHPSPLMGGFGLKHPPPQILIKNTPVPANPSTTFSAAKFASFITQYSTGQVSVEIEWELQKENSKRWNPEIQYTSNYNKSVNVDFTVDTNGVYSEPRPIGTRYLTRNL
# [3] = molecular target: T1, Recombinant AAV1 particles (Adeno-Associated Virus serotype 1 capsid) (Adeno-associated virus 1, UniProt Q9WBP8 1-736); assay: SPR
# T1 chain 1: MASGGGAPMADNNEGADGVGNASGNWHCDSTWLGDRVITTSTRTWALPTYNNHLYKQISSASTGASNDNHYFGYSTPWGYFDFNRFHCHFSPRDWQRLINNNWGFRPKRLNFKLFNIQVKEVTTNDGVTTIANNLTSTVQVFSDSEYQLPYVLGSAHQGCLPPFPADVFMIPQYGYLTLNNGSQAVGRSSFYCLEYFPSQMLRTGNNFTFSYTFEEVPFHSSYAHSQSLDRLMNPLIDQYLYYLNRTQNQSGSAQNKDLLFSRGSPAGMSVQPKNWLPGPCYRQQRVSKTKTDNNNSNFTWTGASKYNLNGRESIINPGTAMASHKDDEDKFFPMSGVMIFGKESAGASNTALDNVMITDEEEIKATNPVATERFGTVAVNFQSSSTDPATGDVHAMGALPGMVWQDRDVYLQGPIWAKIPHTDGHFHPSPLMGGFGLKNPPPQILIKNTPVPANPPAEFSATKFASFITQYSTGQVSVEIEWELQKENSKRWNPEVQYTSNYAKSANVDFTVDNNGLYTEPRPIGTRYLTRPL
# T1 chain 2: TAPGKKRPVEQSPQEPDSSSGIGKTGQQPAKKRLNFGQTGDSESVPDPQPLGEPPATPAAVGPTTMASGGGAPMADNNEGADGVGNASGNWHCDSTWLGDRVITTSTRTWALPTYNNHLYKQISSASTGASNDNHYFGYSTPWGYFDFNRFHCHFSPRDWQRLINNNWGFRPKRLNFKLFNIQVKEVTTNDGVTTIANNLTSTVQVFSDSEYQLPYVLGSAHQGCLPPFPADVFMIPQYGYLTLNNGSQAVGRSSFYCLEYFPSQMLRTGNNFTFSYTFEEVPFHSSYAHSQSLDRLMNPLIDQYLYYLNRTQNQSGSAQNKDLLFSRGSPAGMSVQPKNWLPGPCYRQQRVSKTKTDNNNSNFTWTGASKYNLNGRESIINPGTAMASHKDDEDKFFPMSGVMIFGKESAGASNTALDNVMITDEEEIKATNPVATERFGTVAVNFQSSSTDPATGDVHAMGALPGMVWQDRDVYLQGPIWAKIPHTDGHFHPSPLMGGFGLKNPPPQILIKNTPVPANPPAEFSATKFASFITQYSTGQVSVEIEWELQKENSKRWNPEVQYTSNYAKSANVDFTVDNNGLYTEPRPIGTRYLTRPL
# T1 chain 3: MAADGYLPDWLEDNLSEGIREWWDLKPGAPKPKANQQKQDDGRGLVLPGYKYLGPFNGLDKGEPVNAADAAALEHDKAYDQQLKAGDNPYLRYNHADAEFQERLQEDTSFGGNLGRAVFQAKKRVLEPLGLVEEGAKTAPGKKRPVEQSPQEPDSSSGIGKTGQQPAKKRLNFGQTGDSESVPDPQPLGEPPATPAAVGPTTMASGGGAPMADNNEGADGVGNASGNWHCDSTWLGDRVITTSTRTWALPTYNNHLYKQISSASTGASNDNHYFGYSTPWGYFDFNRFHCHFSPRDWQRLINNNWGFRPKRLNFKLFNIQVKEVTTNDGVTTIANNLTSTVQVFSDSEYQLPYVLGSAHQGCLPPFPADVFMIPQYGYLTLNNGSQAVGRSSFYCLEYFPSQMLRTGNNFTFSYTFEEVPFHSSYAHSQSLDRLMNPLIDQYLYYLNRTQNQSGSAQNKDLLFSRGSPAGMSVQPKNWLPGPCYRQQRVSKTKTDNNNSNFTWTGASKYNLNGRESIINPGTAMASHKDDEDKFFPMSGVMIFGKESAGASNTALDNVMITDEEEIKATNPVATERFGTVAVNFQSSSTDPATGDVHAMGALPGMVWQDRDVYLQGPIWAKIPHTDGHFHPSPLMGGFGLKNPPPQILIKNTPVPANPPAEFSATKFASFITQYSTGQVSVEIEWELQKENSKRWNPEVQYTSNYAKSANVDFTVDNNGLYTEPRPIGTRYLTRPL
molecule,measurement,setting,value
Soluble recombinant AAVR (analyte of the BIAcore assay) (domain or fragment),Kd,[1],255 nM
AAVR-SBP-His (AAVR PKD domains 1–5 with C-terminal streptavidin binding peptide and 6× His-tag in tandem) (domain or fragment),"absorbance at 450 nm, AAVR-SBP-His 50 μg/mL (absorbance (450 nm))",[2],0.662
same,"absorbance at 450 nm, AAVR-SBP-His 100 μg/mL (absorbance (450 nm))",[2],0.861
same,"absorbance at 450 nm, ABTS incubating time 10 min (absorbance (450 nm))",[2],0.32
same,"absorbance at 450 nm, ABTS incubating time 15 min (absorbance (450 nm))",[2],0.663
same,"absorbance at 450 nm, ABTS incubating time 20 min (absorbance (450 nm))",[2],0.819
same,"absorbance at 450 nm, ABTS incubating time 30 min (absorbance (450 nm))",[2],1.33
same,"absorbance at 450 nm, SAV-HRP dilution 1/1000 (absorbance (450 nm))",[2],0.872
same,"absorbance at 450 nm, SAV-HRP dilution 1/2000 (absorbance (450 nm))",[2],0.798
same,"absorbance at 450 nm, SAV-HRP dilution 1/5000 (absorbance (450 nm))",[2],0.662
B1,koff,[3],0.00184 s⁻¹
